Experiment: yeast display, Sf9 membrane polyspecificity reagent, FACS + sequencing; frameworks hold sequencing errors
Outline: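 A nanobody's polyreactivity label depends on the gate it was sorted from. Yeast display cells were stained with 10% biotinylated, detergent-solubilized Sf9 membrane reagent for 1 hour at 4 °C, enriched on streptavidin microbeads and sorted by FACS. The low and high (top ~1%) gates were set on anti-HA fluorescence for expression and streptavidin fluorescence for reagent binding.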

Row | Sequence | polyreactivity (PSR sort gate)
1 | QVQLVESGGGLVQAGGSLRLSCAASGRTFYKNTMGWYRQAPGKERELVAGISQRGGRTYYADSVKGRFTISRDNAKNTVYLQMNSLKPEDTAVYYCAADRYSYGSNGYPRFEYYYWGQGTQVTVSS | high polyreactivity
2 | QVRLVESGGGLVQAGGSLRLSCAASGSTFYPYDMGWYRQAPGKERELVATISSGVSTNYADSVKGRFTISRDNAKNTVYLQMNSLKPEDTAVYYCAVDYFIGDDDYWGQGTQVTVSS | low polyreactivity
3 | QVQLVESGGGLVQAGGSLRLSCAASGSTFGSYAMGLYRQAPGKERELVAAITQIGGSTYYADSVKGRFTISRDNAKNTVYLQMNSLKPEDTAVYYCAVTAGRGGYPQGGVTRGYWGQGTQVTVSS | high polyreactivity
4 | QVQLVESGGGLVQAGGSLRLSCAASGSIFGRNAKGWYRQAPRKERELVAAINSGGSTNYADSVKGRFTISRDNAKNTVYLQMNSLKPEDTAVYYCAARTYSSGRYYGYVAFYYWGQGTQVTVSS | high polyreactivity
5 | QVQLVESGGGLVQAGGSLRLSCAASGSIFASYDMGWYRQAPGKERELVAAISYRGGGTYYADSVKGRVTISRDNAKNTVYLQMNSLKPEDTAVYYCNADTYSNTYRAYDYWGQGTQVTVSS | low polyreactivity
6 | QVQLVESGVGLVQAGGSLRLSCDATGSILGINVMGWYRQAPGKEREVVAAISRRGGSTYYADSVKGRFTISRDNSKNTVYLQMNSLKPEDTAVYYCAAGTSYYYGSYRFYYWGQGTQVTVSS | high polyreactivity
7 | QVQLVESGGGLVQAGGSLRLICAASGSIFRPNAMGWYRQAPGKEREFVASISGRVGSTYYADSVKGRFTISRDNAKNTVYLQMNSLKPEDTAVYYCAADFPTDKLSNFPITEYGYWGQGTQVTVSS | high polyreactivity
8 | QLQLVESGGGLVQAGGSLRLSCAASGSTFLYNAMGWYRQAPGKERELVAAITVSDGSTYYADSVKGRFTISRDNAKNTVYLKMNSLKPVDTAVYYCNADFPRKTRYEYWGQGTQVTVSS | low polyreactivity
9 | QVQLVESGGGLVQAGGSLRLSCAASGITFRRYTMGWYRQAPGKERELVAAISRTGGSTYYADSVKGRFTISRDNAKNTVYLQMNSLKPEDTAVYYCAARPHRYTSRHGYWGQGTQVTVSS | high polyreactivity
10 | QVQLVESGGGLVQAGGSLRLSCAASGLTFHRYAMGWYRQAPGKERELVADISSGDSTNYADSVKGRFTISRDNAKNTVYLQMNSLKPEDTAVYYCNTDGYIYRYRFDYWGQGTQVTVSS | low polyreactivity
11 | QVQLVESGGGLVQAGGSLRLSCAASGFNFIKYAMGWSRQSPGKESELVAAISFRGGRTYYADSVKGRITISRDNAKNTVYLQMNSLKPEDTAVYYCAAETRDYSEGYYWGQGTQVTVSS | high polyreactivity
12 | QDQLVESGGGLVQAGGSLRLSCAPSGFILATNAMGWYRPAPGKERELVAAISYSCGSTNYADSVKGRFTISRDNAKNTVYLQMISLKPVDTAVYYCNDGGSVIWAWYGPVYSWGQGTQVTVSS | low polyreactivity
13 | QVQLVESGGGLVQAGGSLRLSCAASVSIFGPYAKGWYRQAPGKERDLDAAISRGSRTNYADSVKGLFTISRDNEKNTVYLQMNSLKPEDTAVYYCAARYVWRSTHHRGSTYDYWRQGTQVTVSS | high polyreactivity
14 | QVLLQESGGGLVQAGGSLRLSCAASGNIFSAGGMGCYRQAPVNERELVAGIGTGTSTNYADSVKGRFTISRDNAKNTVYLQMNSLKPEDTAVYYCAAAYYSGLSHWYWGQGTQVTVSS | low polyreactivity
15 | QVELVESGAGLVQAGGSLRLSCAASGRIFRYYVKGWYRQAPGKESELVAAISSGGSTNYADSVKGRFTISRDNAKNTVYLQMNSLKPEDTAVYYCNRDIGGSSVLDDYWGQGTQVTVSS | low polyreactivity
16 | QVHLVESGGGLVQAGGSLRLSCAASGLIFAFYGMGWYRPAPGKERELVASIDKSGGSTYADSVKGRFTISRDNAKNTVYLQMNSLKPEDTAVSYCATNVGGGWAYEYWGQGTQVTVSS | low polyreactivity
17 | QVHLVESGGALVQAGGSLRLSCASSGRTFGWNVMGWYRQAPGKERELVAAISGSGGSTYYADSLKGRFTISRDNAKNTVYLQMNSLKPEDTAVYYCAALYGPGREYDYWGQGTQVTVSS | low polyreactivity
18 | QVQLVESGGGLVQAGGSLRLSCAASGSTFYGYAMGWYRQAPGKERELVAAITRSGGSTYYADSVKGRFTISRDNAKNTVYLQMNSLKPEDSEVYYCNKYGYKGGVGYDYWGQGTEVTVSS | high polyreactivity
19 | QVQLVESGGGLVQAGGSLRLSCAASGRIIRAYAMGWYRQAPGKERELVAAISGGSNTNYADSVKGRFKISRDNAKNTVYLQMNSLKPDDTAVYYCAADAGYWESLWYPYGFYWGQGTQVSVSS | low polyreactivity
20 | QVQLVESGGGLVQAGGSLRLSCAASGSIFVTYAMGWYRQAPGKERELVAAINYSGGSTYYADSVKGRFTISRDNAKNTVYLQMNSVKPEDTAVYYCAATTRYYSYGYWGQGTQVTVSS | low polyreactivity
21 | QDQLVESGGGLVQAGGSLRITCAASGSIFSWYTMGRYRQAPGKEMELVAAISGCGSRTYYADSVKGRFTISRDIEKNTVYLQMNSLKPEDTALYYCNTVNTWSVYYAYDYWGQGTQVTVSS | high polyreactivity
22 | QVQLVESGGCLVQAGGRLRLSCAASGRIFYWNDMGWYRQAPGKERELVAAIDFSGASTYYADSVKGRFTISRDNAKNTVYLEMNSLKPEDTAVYYCAAYQRRGKYQMDYWGQGTQVTVSS | low polyreactivity

Row | Sequence | polyreactivity (PSR sort gate)
23 | QDQLVESGGGLVQAGGSLRLSCAASGRIFYTNGMGWYRQAPGKERELVAAITYSGGNTFYADSVKGRFTISRDNAKNTVYLQMNSLKPEDTAVYYCAATFTYLGYWYDYWGQGTQVTVSS | low polyreactivity
24 | QVQLHESGCGLVQAGGSLRLSCAASGTISYAGPMGWYRPAPGNEREFVAGIGVGSNTNYADSVKGRYTIIRDNATNTVYLQMNSLKPEDTAVYYCAVGGYAPLGRPYWGQGTQVTVSS | low polyreactivity
25 | QVQLVESGGGLVQAGGSLRLSCAASGRIFPGNPMGWYRQATGQERELVAGISFSGGRTYYADSVKGRFTISRDNAKNTVYLQIISLKPEDTAVYYCATKYQQHCWSYDYWGQGTQVTVSS | low polyreactivity
26 | QDQLVESGGGLVQAGGSLRLTCAASGFIFDRNTMGLYRQATGNDTELVAAISRSGGSTYYSDSVNGRFTISRDNAKNTVYLQMNSMKPEDTAVYNCGALYYYRNRSYYYWGQGTHVTVSS | high polyreactivity
27 | QVQLVESGGGLVQAGGSLRLSCAASGYTFTINTMGWYRQAPGKERELVAAITWRGGSTYYADSVKGRFTISRDNANNTVYLQMNSLKPEDTAVYYCNKDYYITTTTFDYWGQGTQVTVSS | low polyreactivity
28 | QVQIVESGGGLVQAGGSLRLSCAASGRTLYQYSMGWYRQAPGKERELVAAITTSTGNTYYADSVKARFTISRDNAKYTVYSQMNSLKPEDTAVYYCAADTVWRLDYWGQGTQVTVSS | low polyreactivity
29 | QVQLVESGGGLVQAGGSLRLSCAASGSTFTEYAMGWYRQAPGKERELVAGISSDGSTKYADSVKGRFTISRDNAKNTVYLQMNSLKPEDTAVYYCNKDQSYAKYDYWGQGTQVTVSS | low polyreactivity
30 | QVQLVESGGGLVQAGGSLRLSCAASGSTFVGYTLGWSRQAPGNERELVASLSWDGGSTYYADSVKGRFTISRDNAKNTVYLQMNSLKPEDTAVYYCNADQGIIGAYTNSLPEYDYWGLGTQVTVSS | low polyreactivity
31 | QVQLVESGGGLVQAGGSLRLSCAAYGRTFDTYAMGWYLQAPGKERELVAAISFSGASTYYADSVKGRFTISRDNAKNTVYLQLNSLKPEDTAVYYCNARYGYRVPLTPIGARFNYWGQGTQETVSS | high polyreactivity
32 | QVQLVESGGGLVQAGGRLRLSCPASGGTFYIYVMGWYRQAPGKESELVAAITSGDSTNYADSVKGRFTISRDNAKNTVYLQMNSLKPEDTAVYYCAVGITQDPLMYYPFFFHYDYWGQGTQVTVSS | low polyreactivity
33 | QVQLVESGGGLVQAGGSLRLSCAASGFIFTDNAMGWYRQAPGKERELVAAISKNGGSTYYADSVKGRFTISRDNAKNTVYLQMNSLKQEDTAVYYCNTRRKNFVKSSQVEYWGQGTQVTVSS | high polyreactivity
34 | QVHLVESGGGLVQAGGSLRLSCAASGRTFDRNAMGWYIQAPGKERELVAAISRNGGSTYYADSVKGRFTISRDNAKNTVYLQMNSLKPEDTAVYYCAAPRSVYDVARGDYWGQGTQVTVSS | high polyreactivity
35 | QVQLVESGGGLVQAGGSLRLSCAASGSTFRYYAKGWYRQAPGKERELVAAINYGGGRTYYADSVKGRFTISRDIAKNTVYLQMNSLKPEDTAVYYCATGYYYYRFYTYGYWGQGTQVTVSS | high polyreactivity
36 | QVQLVESGGGLVQAGGSLRLSCAASGFTFRRYTMGWYRQAPGKERELVAAISGSGGSTYYADSVKGRFTISRDNAKNTVYLQMNSLKPEDTAVYYCNAPYLHYVIVFTDYSQRYDYWGQGTQVTVSS | high polyreactivity
37 | QVQLVESGRGLVQAGGSLRLSCAASGNTFNVNAMVWYRQEPGKERELVAAITRSGGITYYADSVKGRFTISRDNAKNTVYLQLNSMKPEDTAVYYCAVEGFGYAYYYFYEYDYWGQGTQVTVSS | high polyreactivity
38 | QVQLVESGGGLVQAGGSLRLSCAASGFTFGYYTMGWYRQAPGKERELVAAISSSGGSTYYADSVKGRFTISRDNAKNTVYLQMNSLKPEDTAVYYCAARSVRYGGRYDYWGQGTQVTVSS | high polyreactivity
39 | QVQLVESGGGLVQAGGSLRLSCAASGSTFWYYAMGWYRQAPGKERELVAAITTGGDTTNYADSVKGRFTISRDNAKNNVYLQMNSLKPADTAVYYCARDTGYDLIVLPDDSWGQGTQVTVSS | low polyreactivity
40 | QVQLVESGGGLVQAGGSLRLSCAASGSTFDTNAMGWYRQAPGKERELVATITSIGGSKYADSVKGRFTISRDNAKNTVYLQMNSLIPEDTAVYYCATDYVEIDYDYDYWGQGTQVSVSS | low polyreactivity
41 | QVQLVESGGGLVQAGGSLRLTCAASGRIFIYYAMGWYRQAPGKERELVAAISWGGGRTYYADSVKGRFTISRDNAKNTVYLQINSLKPEDTAVYYCAAGVYTGQHEYDYWGQGTQVTVSS | low polyreactivity
42 | QGQLEESGGGLVQAGGSLRLTCAASGRNLRTYAMGWYRQATGKERELVAAISRGGSTNYADSVKGRFTISRDNAKNTVYLQMHSLKPEDTAVYYCAAGYVRYYSDYVSYVYWGQGTQVTVSS | low polyreactivity
43 | QVQLVESGGGLVQAGGSLRLSCAASGRIFDGYAMGWYRQAPGKEWELVASISDDGGSTYYADSVKGRFTISRDNEQNTVYLQLNSLKPDDTAVYYCAAVYRRRSYSFYYWGHGTQVTVSS | high polyreactivity
